In paper PMC10349104, “Engineering broad-spectrum inhibitors of inflammatory chemokines from subclass A3 tick evasins” (Nature Communications, 2023):
“And” between values parts separate entries of the source, which are not always exact repeats. Identical values can stand only once.

T1: EVA-4 (UniProt P0C8E9 24-127)
T1 sequence (looked up): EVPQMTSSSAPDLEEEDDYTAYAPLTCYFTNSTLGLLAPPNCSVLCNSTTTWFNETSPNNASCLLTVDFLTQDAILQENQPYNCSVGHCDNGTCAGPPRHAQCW

T2: EVA-AAM1001, C-terminally Avi-tagged and biotinylated (A. americanum, biotin on the AVI tag)
T2 chain: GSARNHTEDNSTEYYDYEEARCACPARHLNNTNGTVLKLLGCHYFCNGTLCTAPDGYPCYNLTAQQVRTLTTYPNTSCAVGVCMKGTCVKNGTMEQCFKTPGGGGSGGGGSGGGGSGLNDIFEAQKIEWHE


Each binder was assayed against T1, EVA-4 (assay: not stated; Kd of EVA-4 for human chemokines, three readings (source data of Supplementary Fig. 7); method and conditions not told for EVA-4). Conditions: not given.

Sequence of CCL11 (P51671 24-97): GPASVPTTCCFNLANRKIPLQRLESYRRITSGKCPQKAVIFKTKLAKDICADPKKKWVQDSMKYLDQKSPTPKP

Row | Binder | Kd
1 | CCL11 (ligand, source: E. coli Rosetta-gami 2 (DE3), purified (His-Trap, SEC, RP-HPLC)) not shown | 14.1 nM and 23.5 nM and 22.7 nM
2 | CCL24 (ligand, human, UniProt O00175 27-119, looked up) VVIPSPCCMFFVSKRIPENRVVSYQLSSRSTCLKAGVIFTTKKGQQFCGDPKQEWVQRYMKNLDAKQKKASPRARAVAVKGPVQRYPGNQTTC | 53.8 nM and 54.2 nM and 56.7 nM
3 | CCL26 (ligand, human, UniProt Q9Y258 24-94, looked up) TRGSDISKTCCFQYSHKPLPWTWVRSYEFTSNSCSQRAVIFTTKRGKKVCTHPRKKWVQKYISLLKTPKQL | 56.5 nM and 69.6 nM and 86.6 nM
4 | CCL5 (ligand, human, UniProt P13501 24-91, looked up) SPYSSDTTPCCFAYIARPLPRAHIKEYFYTSGKCSNPAVVFVTRKNRQVCANPEKKWVREYINSLEMS | 6.07 nM and 5.93 nM and 6.16 nM
5 | CCL1 (ligand, human, UniProt P22362 24-96, looked up) KSMQVPFSRCCFSFAEQEIPLRAILCYRNTSSICSNEGLIFKLKRGKEACALDTVGWVQRHRKMLRHCPSKRK | 449 nM and 342 nM and 338 nM
6 | CCL18 (ligand, human, UniProt P55774 21-89, looked up) AQVGTNKELCCLVYTSWQIPQKFIVDYSETSPQCPKPGVILLTKRGRQICADPNKKWVQKYISDLKLNA | 0.346 nM and 0.451 nM and 0.45 nM
7 | CCL17 (ligand, human, UniProt Q92583 24-94, looked up, source: E. coli Rosetta-gami 2 (DE3), purified (His-Trap, SEC, RP-HPLC)) ARGTNVGRECCLEYFKGAIPLRKLKTWYQTSEDCSRDAIVFVTVQGRAICSDPNNKRVKNAVKYLQSLERS | 282 nM and 283 nM and 285 nM
8 | CCL3 (ligand, human, UniProt P10147 24-92, looked up) SLAADTPTACCFSYTSRQIPQNFIADYFETSSQCSKPGVIFLTKRSRQVCADPSEEWVQKYVSDLELSA | 0.175 nM and 0.285 nM and 0.27 nM
9 | CCL22 (ligand, human, UniProt O00626 25-93, looked up) GPYGANMEDSVCCRDYVRYRLPLRVVKHFYWTSDSCPRPGVVLLTFRDKEICADPRVPWVKMILNKLSQ | 8.49 nM and 8.53 nM and 8.35 nM
10 | CCL7 (ligand, source: E. coli Rosetta-gami 2 (DE3), purified (His-Trap, SEC, RP-HPLC)) not shown | 0.651 nM and 0.847 nM and 0.833 nM
11 | CCL8 (ligand, human, UniProt P80075 24-99, looked up) QPDSVSIPITCCFNVINRKIPIQRLESYTRITNIQCPKEAVIFKTKRGKEVCADPKERWVRDSMKHLDQIFQNLKP | 0.259 nM and 0.49 nM and 0.489 nM

Target: T2, EVA-AAM1001, C-terminally Avi-tagged …
Test: SPR
Conditions: both partners purified

Row | Binder | fold increase in affinity over wild type CCL11 [fold] | fold increase in affinity over wild type CCL7 [fold]
12 | CCL11(F11A) (ligand, also called CC + 1 residue-mutated CCL11; source: E. coli Rosetta-gami 2 (DE3), purified (His-Trap, SEC, RP-HPLC)) not shown | ~200 | 
13 | CCL7(Y13A) (ligand, source: E. coli Rosetta-gami 2 (DE3), purified (His-Trap, SEC, RP-HPLC)) not shown |  | ~10000
